The target of one assay is T1, 4H58-AA.
T1 chain: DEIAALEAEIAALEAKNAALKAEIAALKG
As to the kind of experiment: two-hybrid library CCmax.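 Note: natural log of median RNA to DNA barcode read ratio; higher means stronger binding.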 The note with it: mean of both orientations.

The target in a further assay is T2, 4H_APH.
T2 chain: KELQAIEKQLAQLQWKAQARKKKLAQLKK
As to the kind of experiment: two-hybrid library CCmax.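 Note: natural log of median RNA to DNA barcode read ratio; higher means stronger binding.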 As to conditions: mean of both orientations.

The next assay concerns the target T3, 4H895-AA.
T3 chain: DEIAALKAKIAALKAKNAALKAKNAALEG
As to the kind of experiment: two-hybrid library CCmax.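 Note: natural log of median RNA to DNA barcode read ratio; higher means stronger binding.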 As to conditions: mean of both orientations.

For a further assay, the target named is T4, 4H3020-AA.
T4 chain: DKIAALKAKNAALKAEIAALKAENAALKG
As to the kind of experiment: two-hybrid library CCmax.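 Note: natural log of median RNA to DNA barcode read ratio; higher means stronger binding.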

For another assay, the target named is T5, 4H486-AA.
T5 chain: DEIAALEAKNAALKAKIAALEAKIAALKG
As to the kind of experiment: two-hybrid library CCmax.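 Note: natural log of median RNA to DNA barcode read ratio; higher means stronger binding.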 The note with it: mean of both orientations.

In another assay the target is T6, 4H3705-AA.
T6 chain: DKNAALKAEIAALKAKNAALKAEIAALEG
As to the kind of experiment: two-hybrid library CCmax.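 Note: natural log of median RNA to DNA barcode read ratio; higher means stronger binding.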 The note with it: mean of both orientations.

The target in a further assay is T7, 4H3782-AA.
T7 chain: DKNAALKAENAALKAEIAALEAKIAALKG
As to the kind of experiment: two-hybrid library CCmax. The note with it: mean of both orientations.

The next assay has as its target T8, 4H535-AA.
T8 chain: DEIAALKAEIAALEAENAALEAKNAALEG
The assay can be described thus: two-hybrid library CCmax. As to conditions: mean of both orientations.

The target in a further assay is T9, 4H3365-AA.
T9 chain: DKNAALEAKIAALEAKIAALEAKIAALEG
The assay can be described thus: two-hybrid library CCmax. As to conditions: mean of both orientations.

A further assay has as its target T10, 4H465-AA.
T10 chain: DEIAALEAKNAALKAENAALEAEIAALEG
The assay can be described thus: two-hybrid library CCmax. The note with it: mean of both orientations.

For a further assay, the target named is 4H_GCN4. The assay can be described thus: two-hybrid library CCmax. As to conditions: mean of both orientations.
Chain of 4H_GCN4 (chain, as listed by the source): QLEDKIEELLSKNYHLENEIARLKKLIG
The next assay concerns the target T11, 4H355-AA.
T11 chain: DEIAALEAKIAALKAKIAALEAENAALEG
The assay can be described thus: two-hybrid library CCmax. As to conditions: mean of both orientations.

The next assay addresses GCN2_T. As to the kind of experiment: two-hybrid library CCmax.
In the next assay the target is T12, 4H3651-AA.
T12 chain: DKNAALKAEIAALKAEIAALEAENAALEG
The assay can be described thus: two-hybrid library CCmax. The note with it: mean of both orientations.

Another assay addresses T13, 4H_BCR.
T13 chain: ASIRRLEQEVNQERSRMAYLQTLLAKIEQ
The assay can be described thus: two-hybrid library CCmax. As to conditions: mean of both orientations.

In another assay the target is T14, P7bH1.
T14 chain: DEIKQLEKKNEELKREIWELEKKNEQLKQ
The assay can be described thus: two-hybrid library CCNG1.

A further assay has as its target T15, P8bH1.
T15 chain: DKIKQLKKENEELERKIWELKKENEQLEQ
The assay can be described thus: two-hybrid library CCNG1.

For the next assay, the target named is T16, P9bH1.
T16 chain: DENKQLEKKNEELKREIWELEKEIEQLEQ
The assay can be described thus: two-hybrid library CCNG1.

The target in the next assay is T17, O8-bP.
T17 chain: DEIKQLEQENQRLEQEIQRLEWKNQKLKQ
The assay can be described thus: two-hybrid library CCNG1.

In the next assay the target is T18, O4-bP.
T18 chain: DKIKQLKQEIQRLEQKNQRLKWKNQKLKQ
The assay can be described thus: two-hybrid library CCNG1.

The target of a further assay is T19, O7-bP.
T19 chain: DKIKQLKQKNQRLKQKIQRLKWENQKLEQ
The assay can be described thus: two-hybrid library CCNG1.

In another assay the target is T20, O9-bP.
T20 chain: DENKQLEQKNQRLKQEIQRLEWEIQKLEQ
As to the kind of experiment: two-hybrid library CCNG1.

The target of the next assay is T21, O6-bP.
T21 chain: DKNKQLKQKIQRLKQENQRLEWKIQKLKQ
The assay can be described thus: two-hybrid library CCNG1.

For the next assay, the target named is T22, O5-bP.
T22 chain: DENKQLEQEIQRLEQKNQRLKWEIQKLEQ
The assay can be described thus: two-hybrid library CCNG1.

The target of the next assay is T23, O3-bP.
T23 chain: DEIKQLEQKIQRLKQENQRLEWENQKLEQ
As to the kind of experiment: two-hybrid library CCNG1.

The target of a further assay is T24, P6bH1.
T24 chain: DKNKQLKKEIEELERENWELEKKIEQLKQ
As to the kind of experiment: two-hybrid library CCNG1.

Another assay concerns the target T25, O4-bN.
T25 chain: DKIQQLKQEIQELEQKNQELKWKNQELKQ
As to the kind of experiment: two-hybrid library CCNG1.

The target of a further assay is T26, O9-bN.
T26 chain: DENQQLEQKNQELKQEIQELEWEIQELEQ
The assay can be described thus: two-hybrid library CCNG1.

For another assay, the target named is T27, O8-bN.
T27 chain: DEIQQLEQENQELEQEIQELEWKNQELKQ
As to the kind of experiment: two-hybrid library CCNG1.

For a further assay, the target named is T28, O5-bN.
T28 chain: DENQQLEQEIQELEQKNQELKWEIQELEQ
The assay can be described thus: two-hybrid library CCNG1.

Another assay addresses T29, O7-bN.
T29 chain: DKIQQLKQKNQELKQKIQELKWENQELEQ
The assay can be described thus: two-hybrid library CCNG1.

For another assay, the target named is T30, O6-bN.
T30 chain: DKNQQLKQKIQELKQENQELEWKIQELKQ
As to the kind of experiment: two-hybrid library CCNG1.

Experimental findings from paper PMC10397247 are described below.

B1: 4H3020-AA (peptide)
chain: DKIAALKAKNAALKAEIAALKAENAALKG
As to B1, the interaction score is -0.528 in the assay with 4H58-AA; -2.43 in the assay with 4H_APH; -1.5 with 4H895-AA; 0.962 with 4H3020-AA; -1.33 with 4H486-AA; -1.78 with 4H3705-AA. The interaction score with 4H3782-AA is -1.57; in the assay with 4H535-AA, -1.47; in the assay with 4H3365-AA, -1.49; in the assay with 4H465-AA, -1.7; in the assay with 4H_GCN4 it was -0.937; with 4H355-AA, -1.86. The interaction score was -0.848 with GCN2_T, -1.36 in the assay with 4H3651-AA and -1.87 with 4H_BCR.

B2: P7bH1 (peptide)
chain: DEIKQLEKKNEELKREIWELEKKNEQLKQ
Consider B2, for which the interaction score with P7bH1 is -0.0541; in the assay with P8bH1 it was 1.89; in the assay with P9bH1, -0.3.

B3: O3-bP (peptide)
chain: DEIKQLEQKIQRLKQENQRLEWENQKLEQ
B3: the interaction score was -0.905 with O8-bP; 1.15 with O4-bP; -1.61 in the assay with O7-bP; -1.8 in the assay with O9-bP; -0.828 with O6-bP; -1.53 with O5-bP. The molecule further came in with an interaction score with O3-bP of -0.797.

B4: P6bH1 (peptide)
chain: DKNKQLKKEIEELERENWELEKKIEQLKQ
Consider B4, for which the interaction score in the assay with P7bH1 was 1.39; in the assay with P8bH1, 0.525; in the assay with P6bH1, -0.419; with P9bH1, 0.0468.

B5: O4-bN (peptide)
chain: DKIQQLKQEIQELEQKNQELKWKNQELKQ
Turning to B5, the interaction score with O4-bN was -0.666; with O9-bN, -0.542; with O8-bN, -0.553; with O5-bN it was -0.492; with O7-bN, -0.226; in the assay with O6-bN, 0.639.

B6: P8bH1 (peptide)
chain: DKIKQLKKENEELERKIWELKKENEQLEQ
Take B6: the values for the interaction score with P8bH1 and with P9bH1 were -0.114 and -0.01, respectively.
